Data taken from patent publication US20250197484A1 (ECO ANIMAL HEALTH, published 2025).
Read-outs that look alike come from different tables or passages of the source.

B1: Net_14 (VHH)
VHH: QVQLVESGGGLVQAGGSVRLSCVASGLTFSGYSLGWFRQAPGKEREGVSYISSSGMITDYADSVKGRVTISRDDAKSTMYLQMNSLKPEDTAVYYCAARFPRPRSWLSTDSYNYWGQGAQVTVSS
B2: Net_83 (VHH)
VHH: QVQLVESGGGLVQAGESLRLSCAASGSIRSISFMNWYRQQPGKQRELVAGINQIGNTNYAGSVKGRFTISRDNAKNTVYLQMNSLKPEDTAVYYCNVIVRGTVSPFQFWGQGTQVTVSS

Experiments:
[1] = target: T1, Clostridium perfringens NetB toxin (necrotic enteritis B-like toxin) (Clostridium perfringens); experiment: cell-based or functional assay
[2] = target: T1, Clostridium perfringens NetB toxin …
[3] = target: T1, Clostridium perfringens NetB toxin …; experiment: cell-based or functional assay; remark: listed apart in the source
[4] = target: T1, Clostridium perfringens NetB toxin …; experiment: SPR (Biacore 8K+), single cycle kinetics, NetB toxin immobilised, pH 7.4
[5] = target: T1, Clostridium perfringens NetB toxin …; remark: listed apart in the source

Row | Binder | IC50 of NetB-induced RBC lysis inhibition after incubation in water, Day 0 [1] | IC50 of NetB-induced RBC lysis inhibition after incubation in water, Day 1 [1] | IC50 of NetB-induced RBC lysis inhibition after incubation in water, Day 4 [1] | EC50 (read off the curve) [2] | IC50, inhibition of NetB-induced RBC lysis, 0 min incubation with 30 U/ml pepsin [3] | Kd [4] | koff [4] | kon [4] | EC50 (read off the curve) [5]
1 | B1 | 44.2 nM | 53 nM | 51.1 nM | ~0.02 µg/mL | 23 nM | 0.095 nM | 6.32e-05 s⁻¹ | 668000 M⁻¹ s⁻¹ | –
2 | B2 | 163 nM | 168 nM | 245 nM | – | 61 nM | 0.213 nM | 0.000248 s⁻¹ | 1.17e+06 M⁻¹ s⁻¹ | ~0.03 µg/mL
